In publication PMC7866087, “Evaluation of Computationally Designed Peptides against TWEAK, a Cytokine of the Tumour Necrosis Factor Ligand Family” (International Journal of Molecular Sciences, 2021):

Experiments:
[1] = system: 435-P cells, TNFR2F12A gene expression; experiment: Fn14 gene expression with TWEAK, 435-P (RT-PCR); format: cell-based, human; settings: for Normalized level of expression of Fn14 gene: TWEAK 25 ng/ml
Method: (§1) Figure 1 Characterization TWEAK-dependent/not dependent cells. (A) Representative images of Fn14 expression (pink) in BRV5, 435-P and HT29 cells labelled by immunofluorescence. The protein has similar expression in BRV5 and the positive control HT29 cells, and less expressed in 435-P. DAPI (blue) was used for nucleus identification. (B) RT-PCR analysis to quantify Fn14 gene expression of cells cultured in the presence (dark green) or absence (light green) of TWEAK (25 ng/mL) at 48 h. Up-regulation of Fn14 is observed only in HT29 and BRV5 cells. Bars and error bars represent the average and standard deviation as calculated from three replicates respectively. P values represented as: * - significant (Pvalue: 0.01 to 0.05) and **- very-significant (Pvalue: 0.001 to 0.01).
(§2) Since the transcriptional activation of Fn14 expression can be induced in cancer cells by the TWEAK-Fn14 interaction, either in a paracrine or autocrine manner, we investigated whether TWEAK transactivates Fn14 (TNFR2F12A) in BRV5 brain metastatic cells. We primed cells with TWEAK and analysed TNFR2F12A gene expression including in the analysis 435-Br1 cells, the first generation of brain metastatic cells BRV5.
(§3) Three different cell lines were used in this study: BRV5, MDA-MB 435 (435-P), and HT29. The BRV5 is a highly metastatic brain cell line, obtained in one of our laboratories by primary culture from a brain of a nude mouse inoculated with human 435-Br1 brain metastatic cells, as previously described and used as a model to test the peptides in cell cultures. […] The triple negative 435-P cell line is a useful human breast cancer model that expresses both epithelial and melanocytic markers, and was included as the parental cell from which 435-Br1 metastatic variant was initially originated (both cell lines kindly provided by Dr Fabra at IDIBELL Institute, Hospitalet de Llobregat, Spain). Finally, HT29 human colon carcinoma cells obtained from the European Type Culture Collection (ECACC 91072201) were used as a positive control of TWEAK dependent Fn14 over-expressing cells to evaluate TWEAK-Fn14 axis of brain metastatic variants.

[2] = system: BRV5 cells, Fn14 gene expression; experiment: Fn14 gene expression with TWEAK, BRV5 (RT-PCR); format: cell-based, human; settings: for Normalized level of expression of Fn14 gene: BRV5, TWEAK 25 ng/ml
Method: as §1, §2, §3

[3] = system: TWEAK-Fn14 signalling pathway, BRV5 cells; experiment: Cell-based screening of pooled peptides, gene expression microarray in TWEAK-stimulated BRV5 cells; set-up: species or system human; settings: 6 h; for BIRC2 expression Z-Score / HSP90B1 expression Z-Score / IL6 expression Z-Score / JUN expression Z-Score / MAP4K4 expression Z-Score / MAPK14 expression Z-Score / NFKB2 expression Z-Score / TNFRSF12A expression Z-Score / TRAF2 expression Z-Score: BRV5 + TWEAK, normalized to NARS2
Method: To optimize resources and rationalize the analysis, we ran the screening by pooling the 50 peptides into six groups, i.e., Pool 1 to 6, containing […] peptides each and displaying similar MW (Supplementary Materials Table S1). We monitored the activity of pooled peptides on TWEAK-Fn14 signalling pathways following the design described in Material and Methods. BRV5 cells were cultured in the presence or absence of TWEAK and treated with peptides at different time points.
As a preliminary study, we performed an experiment with 435-P and BRV5 cells to assess the effect on the level of expression on the selected genes in cultures with or without TWEAK (Supplementary Materials Figure S2A). Negative controls without pool 1 peptides were included in the protocol to avoid unspecific biases in the inhibition ratio. To achieve optimal conditions to measure peptide activity, preventing peptide degradation in the culture medium, the effect of peptides was evaluated by priming cultures with peptide every hour (0–5 h), every two hours (0, 2, and 4 h) and every three hours (0 and 3 h). In these experiments, the housekeeping gene NARS2 was used to normalize gene expression.
as §3
Appropriate cell culture conditions were established as the controls needed in the expression of genes with and without peptides and with and without TWEAK activation, both as pools and individually (see Supplementary Materials Figure S2). The protocol started with the seeding of 125,000 cells/well in 500 µL of culture media supplemented with 10% fetal bovine serum (CM+FBS10%) in 24-well dishes for 24 h before removing FBS (CM-FBS). After overnight starvation in CM-FBS culture, different peptide treatment conditions (at final concentration of 450 µM) were established in the presence or absence of TWEAK (25 ng/mL final concentration) (Peprotech EC, Ltd., London, UK). Some cells were treated with peptides at a single, unique, initial dose (time 0) while other were treated with repeated doses to account for the effect cell-culture degradation. These include a repeated treatment every hour (i.e., […]), every two hours (time 0, 2, and 4) and every three hours (time 0 and 3)—see Supplementary Materials Figure S2 for diagrammatic depiction. At time 6 (after six hours) cells were lysed and RNA extracted for transcriptomic analyses (see next). Cell were culture for six hours as this was the time needed to achieve the highest upregulation of the TWEAK-Fn14 axis upon TWEAK treatment as shown in previous time-course RT-PCR experiments (see Figure 2).
RNA from cells was extracted 6 h after treatments by direct lysis on the well. The RNeasy Micro kit (Qiagen, Hilden, Germany) was used to isolate total RNA from cell lysate following manufacturer’s protocols including an additional step of digestion with DNase I (Qiagen, Hilden, Germany). Total RNA concentration was measured in a NanoDrop 1000 spectrophotometer (Thermo Scientific, Waltham, MA, USA). […]

[4] = pools, BRV5 + TWEAK 25 ng/mL, 450 µM every hour

B1: tumour necrosis factor-like weak inducer of apoptosis (protein, UniProt O43508 94-249, looked up)
Tumor necrosis factor ligand …: SAPKGRKTRARRAIAAHYEVHPRPGQDGAQAGVDGTVSGWEEARINSSSPLRYNRQIGEFIVTRAGLYYLYCQVHFDEGKAVYLKLDLLVDGVLALRCLEEFSATAASSLGPQLRLCQVSGLLALRPGSSLRIRTLPWAHLKAAPFLTYFGLFQVH
[1]; TWEAK 25 ng/mL, 48 h
  TNFR2F12A gene expression: decreased TNFR2F12A gene expression in 435-P cells with regard to controls (p = 0.0246)
[1]; technical replicate 1
  Normalized level of expression of Fn14 gene: 0.1395
[1]; technical replicate 2
  Normalized level of expression of Fn14 gene: 0.1292
[1]; technical replicate 3
  Normalized level of expression of Fn14 gene: 0.1408
[2]; technical replicate 1
  Normalized level of expression of Fn14 gene: 0.1340
[2]; technical replicate 2
  Normalized level of expression of Fn14 gene: 0.1202
[2]; technical replicate 3
  Normalized level of expression of Fn14 gene: 0.1441
[2]; TWEAK 25 ng/mL, 48 h, BRV5
  Fn14 transcriptional expression: significantly activated in BRV5 cells (p = 0.0031)
[3]; BRV5 + TWEAK 25 ng/mL, peptides 450 µM every hour, versus T
  regulation of probe genes by pooled peptides: higher level of expression overall when compared to untreated and unstimulated cells
[3]; TWEAK, BRV5
  downstream activation of MAP4K4 (NIK), TRAF2, and BIRC2 (IAP2): occurred at 6 h in BRV5 cells
[3]; [4]
  BIRC2 mRNA expression (normalized to NARS2): 1.448
  HSP90B1 mRNA expression (normalized to NARS2): 8.392
  IL6 mRNA expression (normalized to NARS2): 0.0007818
  JUN mRNA expression (normalized to NARS2): 0.04566
  MAP4K4 mRNA expression (normalized to NARS2): 0.7707
  MAPK14 mRNA expression (normalized to NARS2): 0.5877
  NFKB2 mRNA expression (normalized to NARS2): 0.193
  TNFRSF12A mRNA expression (normalized to NARS2): 0.06934
  TRAF2 mRNA expression (normalized to NARS2): 0.0999
[3]; pools
  BIRC2 expression Z-Score: 1.233
  HSP90B1 expression Z-Score: -0.5008
  IL6 expression Z-Score: -1.234
  JUN expression Z-Score: -1.012
  MAP4K4 expression Z-Score: -0.5276
  MAPK14 expression Z-Score: 0.2377
  NFKB2 expression Z-Score: -0.03742
  TNFRSF12A expression Z-Score: -0.4905
  TRAF2 expression Z-Score: 1.245
[3]; pools, listed as T
  BIRC2 expression Z-Score: 1.2334
  HSP90B1 expression Z-Score: -0.5008
  IL6 expression Z-Score: -1.2337
  JUN expression Z-Score: -1.0121
  MAP4K4 expression Z-Score: -0.5276
  MAPK14 expression Z-Score: 0.2377
  NFKB2 expression Z-Score: -0.0374
  TNFRSF12A expression Z-Score: -0.4905
  TRAF2 expression Z-Score: 1.2452
